From patent US20250206828A1, “ANTI-ADENOSINE RECEPTOR (A2aR) ANTIBODIES AND THE USE THEREOF” (Adept Therapeutics Inc., priority 2022, published 2025)
Like-named read-outs stand apart in the source and are kept apart here.

Assays:
[1] = molecular target: T1, human adenosine A2A receptor (A2aR) (human, UniProt P29274 1-412); test: flow cytometry, HEK293-hA2aR cells, supernatant 1 ug/ml
T1 construct: Assays used HEK293 cells stably overexpressing human A2aR (BPS Bioscience 79381), human A2aR-expressing CHO cells, or endogenous A2aR on human PBMC; also called human A2aR; hA2aR
T1 sequence (P29274 whole entry): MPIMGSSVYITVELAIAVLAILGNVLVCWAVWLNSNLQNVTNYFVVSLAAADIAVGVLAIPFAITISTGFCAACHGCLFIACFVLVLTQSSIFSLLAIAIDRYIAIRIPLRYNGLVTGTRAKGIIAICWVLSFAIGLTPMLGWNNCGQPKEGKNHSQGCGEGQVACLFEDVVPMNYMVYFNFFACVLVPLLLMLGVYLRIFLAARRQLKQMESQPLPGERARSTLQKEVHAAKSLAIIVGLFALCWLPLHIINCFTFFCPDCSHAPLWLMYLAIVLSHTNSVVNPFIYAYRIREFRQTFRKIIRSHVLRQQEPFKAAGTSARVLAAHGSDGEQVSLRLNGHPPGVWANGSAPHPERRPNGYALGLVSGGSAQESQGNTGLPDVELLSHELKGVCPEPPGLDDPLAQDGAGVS

[2] = molecular target: T1, human adenosine A2A receptor (A2aR); test: flow cytometry titration, HEK293-hA2aR cells, purified antibody
[3] = molecular target: T1, human adenosine A2A receptor (A2aR); test: flow cytometry, HEK293-hA2aR cells, supernatant 1 ug/ml; remark: listed apart in the source
[4] = molecular target: T1, human adenosine A2A receptor (A2aR); test: as above; remark: listed apart in the source

| Binder | MFI [1] [MFI] | EC50 [2] [nM] | MFI [4] [MFI] | also measured |
| --- | --- | --- | --- | --- |
| Hu1B5-H6/Hu1B5-L5 (antibody, human IgG1, V domains shown, Human IgG1 FES (L234F, L235E, P331S) and human Ig kappa constant domains) VH: EVQLVQSGAEVKKPGESLRISCKTSGFTFTRFWMNWVRQMPGKGLEWIGRIDPYDSETQYNHKFWDHATLSVDKSSSTVYLQWSSLKASDTAMYYCGRSLYGKGDYWGQGTTVTVSS VL: DIVMTQSPDSLAVSLGERATINCRSSQSIVHSNGNTYLEWYQQKPGQPPKLLIYKVSNRFSGVPDRFSGSGSGTDFTLTISSLQAEDVAVYYCFQGSHVPLTFGGGTKVEIK | 702 |  |  |  |
| Hu3F6-H2/Hu3F6-L8 (antibody, human IgG1, V domains shown, Human IgG1 FES (L234F, L235E, P331S) and human Ig kappa constant domains; also called Hu3F6 VH2/VL8) VH: EVQLVQSGAEVKKPGASVKVSCKTSGFAFTSYWMNWVRQAPGQGLEWMGRIDPSDSEAHYHHKFWGRVTMTVDTSTSTVYMELSSLRSEDTAVYYCLRSLYGKGDYWGHGTTVTVSS VL: DVVMTQSPLSLPVTPGEPASISCRSSQSLVHRNGNTYLEWYLQKPGQSPQLLIYKVSNRFSGVPDRFSGSGSGTDFTLKISRVEAEDVGVYYCYQGSHVPLTFGGGTKVEIK |  | 0.76 |  | MFI [3]: 1710 MFI |
| Hu1B5-H6/Hu1B5-L4 (antibody, human IgG1, V domains shown, Human IgG1 FES (L234F, L235E, P331S) and human Ig kappa constant domains) VH: EVQLVQSGAEVKKPGESLRISCKTSGFTFTRFWMNWVRQMPGKGLEWIGRIDPYDSETQYNHKFWDHATLSVDKSSSTVYLQWSSLKASDTAMYYCGRSLYGKGDYWGQGTTVTVSS VL: DVVMTQSPLSLPVTPGEPASISCRSSQSIVHSNGNTYLEWYLQKPGQSPQLLIYKVSNRFSGVPDRFSGSGSGTDFTLKISRVEAEDVGVYYCFQGSHVPLTFGGGTKVEIK | 1910 |  |  |  |
| Hu1B5-H6/Hu1B5-L3 (antibody, human IgG1, V domains shown, Human IgG1 FES (L234F, L235E, P331S) and human Ig kappa constant domains) VH: EVQLVQSGAEVKKPGESLRISCKTSGFTFTRFWMNWVRQMPGKGLEWIGRIDPYDSETQYNHKFWDHATLSVDKSSSTVYLQWSSLKASDTAMYYCGRSLYGKGDYWGQGTTVTVSS VL: DVVMTQSPLSLPVTLGQPASISCRSSQSIVHSNGNTYLEWYQQRPGQSPRLLIYKVSNRFSGVPDRFSGSGSGTDFTLKISRVEAEDVGVYYCFQGSHVPLTFGGGTKVEIK | 1910 |  |  |  |
| Hu1B5-H2/Hu1B5-L3 (antibody, human IgG1, V domains shown, Human IgG1 FES (L234F, L235E, P331S) and human Ig kappa constant domains) VH: EVQLVQSGAEVKKPGASVKVSCKTSGFTFTRFWMNWVRQAPGQGLEWMGRIDPYDSETQYNHKFWDRVTMTVDTSTSTVYMELSSLRSEDTAVYYCGRSLYGKGDYWGQGTTVTVSS VL: DVVMTQSPLSLPVTLGQPASISCRSSQSIVHSNGNTYLEWYQQRPGQSPRLLIYKVSNRFSGVPDRFSGSGSGTDFTLKISRVEAEDVGVYYCFQGSHVPLTFGGGTKVEIK | 1870 |  |  |  |
| Hu1B5-H2/Hu1B5-L2 (antibody, human IgG1, V domains shown, Human IgG1 FES (L234F, L235E, P331S) and human Ig kappa constant domains) VH: EVQLVQSGAEVKKPGASVKVSCKTSGFTFTRFWMNWVRQAPGQGLEWMGRIDPYDSETQYNHKFWDRVTMTVDTSTSTVYMELSSLRSEDTAVYYCGRSLYGKGDYWGQGTTVTVSS VL: DVVMTQSPLSLPVTLGQPASISCRSSQSIVHSNGNTYLEWYQQRPGQSPRRLIYKVSNRFSGVPDRFSGSGSGTDFTLKISRVEAEDVGVYYCFQGSHVPLTFGGGTKVEIK | 243 |  |  |  |
| Hu3F6-H2/Hu3F6-L4 (antibody, human IgG1, V domains shown, Human IgG1 FES (L234F, L235E, P331S) and human Ig kappa constant domains; also called Hu3F6 VH2/VL4) VH: EVQLVQSGAEVKKPGASVKVSCKTSGFAFTSYWMNWVRQAPGQGLEWMGRIDPSDSEAHYHHKFWGRVTMTVDTSTSTVYMELSSLRSEDTAVYYCLRSLYGKGDYWGHGTTVTVSS VL: DIVMTQTPLSLSVTPGQPASISCRSSQSLVHRNGNTYLEWYLQKPGQSPQLLIYKVSNRFSGVPDRFSGSGSGTDFTLKISRVEAEDVGVYYCYQGSHVPLTFGGGTKVEIK |  | 0.68 |  | MFI [3]: 1590 MFI |
| Hu3F6-H2/Hu3F6-L3 (antibody, human IgG1, V domains shown, Human IgG1 FES (L234F, L235E, P331S) and human Ig kappa constant domains; also called Hu3F6 VH2/VL3) VH: EVQLVQSGAEVKKPGASVKVSCKTSGFAFTSYWMNWVRQAPGQGLEWMGRIDPSDSEAHYHHKFWGRVTMTVDTSTSTVYMELSSLRSEDTAVYYCLRSLYGKGDYWGHGTTVTVSS VL: DVVMTQSPLSLPVTLGQPASISCRSSQSLVHRNGNTYLEWYQQRPGQSPRLLIYKVSNRFSGVPDRFSGSGSGTDFTLKISRVEAEDVGVYYCYQGSHVPLTFGGGTKVEIK |  | 0.65 |  | MFI [3]: 1830 MFI |
| Hu1B5-H6/Hu1B5-L2 (antibody, human IgG1, V domains shown, Human IgG1 FES (L234F, L235E, P331S) and human Ig kappa constant domains) VH: EVQLVQSGAEVKKPGESLRISCKTSGFTFTRFWMNWVRQMPGKGLEWIGRIDPYDSETQYNHKFWDHATLSVDKSSSTVYLQWSSLKASDTAMYYCGRSLYGKGDYWGQGTTVTVSS VL: DVVMTQSPLSLPVTLGQPASISCRSSQSIVHSNGNTYLEWYQQRPGQSPRRLIYKVSNRFSGVPDRFSGSGSGTDFTLKISRVEAEDVGVYYCFQGSHVPLTFGGGTKVEIK | 359 |  |  |  |
| Hu3F6-H2/Hu3F6-L5 (antibody, human IgG1, V domains shown, Human IgG1 FES (L234F, L235E, P331S) and human Ig kappa constant domains; also called Hu3F6 VH2/VL5) VH: EVQLVQSGAEVKKPGASVKVSCKTSGFAFTSYWMNWVRQAPGQGLEWMGRIDPSDSEAHYHHKFWGRVTMTVDTSTSTVYMELSSLRSEDTAVYYCLRSLYGKGDYWGHGTTVTVSS VL: DVVMTQTPLSLSVTPGQPASISCRSSQSLVHRNGNTYLEWYLQKPGQSPQLLIYKVSNRFSGVPDRFSGSGSGTDFTLKISRVEAEDVGVYYCYQGSHVPLTFGGGTKVEIK |  | 0.53 |  | MFI [3]: 1790 MFI |
| Hu3F6-H3/Hu3F6-L8 (antibody, human IgG1, V domains shown, Human IgG1 FES (L234F, L235E, P331S) and human Ig kappa constant domains; also called Hu3F6 VH3/VL8) VH: EVQLVQSGAEVKKPGASVKVSCKTSGFAFTSYWMNWVRQAPGQGLEWIGRIDPSDSEAHYHHKFWGRATLTVDTSSSTVYMELSSLRSEDTAVYYCLRSLYGKGDYWGHGTTVTVSS VL: DVVMTQSPLSLPVTPGEPASISCRSSQSLVHRNGNTYLEWYLQKPGQSPQLLIYKVSNRFSGVPDRFSGSGSGTDFTLKISRVEAEDVGVYYCYQGSHVPLTFGGGTKVEIK |  | 0.76 |  | MFI [3]: 1830 MFI |

The next lines start with results.

| MFI [1] [MFI] | EC50 [2] [nM] | MFI [4] [MFI] | Binder | also measured |
| --- | --- | --- | --- | --- |
|  |  | 285 | Hu3F8-H6/Hu3F8-L2 (antibody, human IgG1, V domains shown, Human IgG1 FES (L234F, L235E, P331S) and human Ig kappa constant domains) VH: EVQLVQSGAEVKKPGESLRISCKASGFTFTRYWMNWVRQMPGKGLEWIGRIDPSDSETHYNHKFWGHATLSVDKSSSTVYLQWSSLKASDTAMYYCLRSLYGKGDYWGQGTTVTVSS VL: DVVMTQSPLSLPVTLGQPASISCRSSQSIVHSNGNTYLEWYQQRPGQSPRRLIYKVSNRFSGVPDRFSGSGSGTDFTLKISRVEAEDVGVYYCYQGSHVPLTFGGGTKVEIK |  |
|  |  | 1750 | Hu3F8-H1/Hu3F8-L4 (antibody, human IgG1, V domains shown, Human IgG1 FES (L234F, L235E, P331S) and human Ig kappa constant domains) VH: QVQLVQSGAEVKKPGASVKVSCKASGFTFTRYWMNWVRQAPGQGLEWMGRIDPSDSETHYNHKFWGRVTMTRDTSTSTVYMELSSLRSEDTAVYYCLRSLYGKGDYWGQGTTVTVSS VL: DIVMTQSPLSLPVTPGEPASISCRSSQSIVHSNGNTYLEWYLQKPGQSPQLLIYKVSNRFSGVPDRFSGSGSGTDFTLKISRVEAEDVGVYYCYQGSHVPLTFGGGTKVEIK |  |
|  |  | 9 | Hu3F8-H1/Hu3F8-L1 (antibody, human IgG1, V domains shown, Human IgG1 FES (L234F, L235E, P331S) and human Ig kappa constant domains) VH: QVQLVQSGAEVKKPGASVKVSCKASGFTFTRYWMNWVRQAPGQGLEWMGRIDPSDSETHYNHKFWGRVTMTRDTSTSTVYMELSSLRSEDTAVYYCLRSLYGKGDYWGQGTTVTVSS VL: DVVMTQSPLSLPVTLGQPASISCRSSQSIVHSNGNTYLEWFQQRPGQSPRRLIYKVSNRFSGVPDRFSGSGSGTDFTLKISRVEAEDVGVYYCYQGSHVPLTFGGGTKVEIK |  |
|  | 0.69 |  | Hu3F8-H5.1/Hu3F8-L5 (antibody, human IgG1, V domains shown, Human IgG1 FES (L234F, L235E, P331S) and human Ig kappa constant domains; also called Hu3F8 VH5.1/VL5) VH: EVQLVQSGAEVKKPGASVKVSCKASGFTFTRYWMNWVRQAPGQGLEWIGRIDPSDSETHYAHKFWGRATLTVDKSTSTVYMELSSLRSEDTAVYYCLRSLYGKGDYWGQGTTVTVSS VL: DVVMTQSPLSLPVTPGEPASISCRSSQSIVHSNGNTYLEWYLQKPGQSPQLLIYKVSNRFSGVPDRFSGSGSGTDFTLKISRVEAEDVGVYYCYQGSHVPLTFGGGTKVEIK |  |
|  |  | 10 | Hu3F8-H1/Hu3F8-L2 (antibody, human IgG1, V domains shown, Human IgG1 FES (L234F, L235E, P331S) and human Ig kappa constant domains) VH: QVQLVQSGAEVKKPGASVKVSCKASGFTFTRYWMNWVRQAPGQGLEWMGRIDPSDSETHYNHKFWGRVTMTRDTSTSTVYMELSSLRSEDTAVYYCLRSLYGKGDYWGQGTTVTVSS VL: DVVMTQSPLSLPVTLGQPASISCRSSQSIVHSNGNTYLEWYQQRPGQSPRRLIYKVSNRFSGVPDRFSGSGSGTDFTLKISRVEAEDVGVYYCYQGSHVPLTFGGGTKVEIK |  |
|  |  | 16 | Hu3F8-H2/Hu3F8-L1 (antibody, human IgG1, V domains shown, Human IgG1 FES (L234F, L235E, P331S) and human Ig kappa constant domains) VH: EVQLVQSGAEVKKPGASVKVSCKASGFTFTRYWMNWVRQAPGQGLEWMGRIDPSDSETHYNHKFWGRVTMTVDTSTSTVYMELSSLRSEDTAVYYCLRSLYGKGDYWGQGTTVTVSS VL: DVVMTQSPLSLPVTLGQPASISCRSSQSIVHSNGNTYLEWFQQRPGQSPRRLIYKVSNRFSGVPDRFSGSGSGTDFTLKISRVEAEDVGVYYCYQGSHVPLTFGGGTKVEIK |  |
|  |  | 1780 | Hu3F8-H2/Hu3F8-L4 (antibody, human IgG1, V domains shown, Human IgG1 FES (L234F, L235E, P331S) and human Ig kappa constant domains) VH: EVQLVQSGAEVKKPGASVKVSCKASGFTFTRYWMNWVRQAPGQGLEWMGRIDPSDSETHYNHKFWGRVTMTVDTSTSTVYMELSSLRSEDTAVYYCLRSLYGKGDYWGQGTTVTVSS VL: DIVMTQSPLSLPVTPGEPASISCRSSQSIVHSNGNTYLEWYLQKPGQSPQLLIYKVSNRFSGVPDRFSGSGSGTDFTLKISRVEAEDVGVYYCYQGSHVPLTFGGGTKVEIK |  |
|  | 0.62 |  | Hu3F8-H5.1/Hu3F8-L3 (antibody, human IgG1, V domains shown, Human IgG1 FES (L234F, L235E, P331S) and human Ig kappa constant domains; also called Hu3F8 VH5.1/VL3) VH: EVQLVQSGAEVKKPGASVKVSCKASGFTFTRYWMNWVRQAPGQGLEWIGRIDPSDSETHYAHKFWGRATLTVDKSTSTVYMELSSLRSEDTAVYYCLRSLYGKGDYWGQGTTVTVSS VL: DVVMTQSPLSLPVTLGQPASISCRSSQSIVHSNGNTYLEWYQQRPGQSPRLLIYKVSNRFSGVPDRFSGSGSGTDFTLKISRVEAEDVGVYYCYQGSHVPLTFGGGTKVEIK |  |
